Test [1] deals with SC-K^d -15 (mouse) (UniProt P01887).
Test [2] has as its target K^d molecules isolated from the spleen of BALB/c mice (mouse, UniProt P01887). The experiment in a line: direct peptide binding assay, peptide coated on plastic, 125I-labeled K^d.

Where “and” joins values, the source holds several entries; their conditions need not be identical. Identical values can stand only once.

As to influenza NPR- 147-158 (peptide), in test [1], the cpm bound is 214 cpm and 171 cpm.

B1: influenza NPR- 147-158 (peptide)
peptide: TYQRTRALVTG
On to B1, for which the binding result in test [2] is given as “no binding (tested: 10 µg/ml; pH 9.6)”.

The values are drawn from patent US6011146A, “Altered major histocompatibility complex (MHC) determinant and methods of using the determinant” (Institut Pasteur, priority 1995, dated 2000).
